This series is described as follows: soluble on expression in E. coli; label from the status in PepcDB or PDB records.
For “MTLYVNLAELLGSRIENGFYRPGDRLPSVRALSVEHGVSLSTVQQAYRVLEDSGLAAPKPKSGYFVSVSRHAPALPAVGRPAQRPVDISQWDQVLDLIRVAPREAVTQLGRGMPDVTSPTLKPLMRALGQLSRHQDMPGLYYDNIYGVLRLREQVARLMLDSGCNLTANDVIITNGCHEALSASVRAICSPGDIVAVDSPSFFGAMQTLKGVGMKALEIPTDPLTGISLEALELALEQWPIKVIQLTPNCNNPLGYVMPEARKRALLTLAQRFDVAIIEDDVYGDLAYNYPRPRTIKSFDEDGRVLLCSSFSKTLAPGLRIGWVAPGRYLERVLHMKYIGTGSTAPQPQLAIADFLEGGHYEPHVRRMRTQYQRSRDQMIDWVMRYFPEGTRASRPQGSFMLWVELAEDFDTLRLNRALLDKGVQIAVGSIFSASGKYRNCMRLNYAAKSSREIESAVRIVGETIAQLIAQSD”, the “soluble on expression in E. coli” value is on record as “not soluble”.

Turning to “MGHHHHHHSHMSSYHCAMNNENARLLTFQTWPLTFLSPTDLAKAGFYYIGPGDRVACFACGGKLSNWEPKDNAMSEHLRHFPKCPFIENQLQDTSRYTVSNLSMQTHAARFKTFFNW”, the “soluble on expression in E. coli” value is given as “not soluble”.

For the sequence “MAEFKEQVLDILEEVCENDIVKENLDVQLFEEGILDSFAVVSLLVEFQERLDIEVSISDFDRDEWATPNMVIKKLEEIR”, the “soluble on expression in E. coli” value is reported as “not soluble”.

For the sequence “MSLKTPIFAQQTDPALTSAVLGQTAALKKVHKDRKKTQEKIIAAEVAVTASLERIHHVEDKMLDYLSNAQGAMQNLYQIKRAGELVAKEIPQNCSLLLKSVGGNLKGTVIAAMVSDELTDAATQMTALFPFMKQLVTSGKYDVTGDDGKNEKHKVNLLNASERYYIANEVVSRLEAINTNLFILAWQVRTLSWNDLWFSLDPEGWANVMSGKNIIGGIISDWNQGYSLKEGHHHHHH”, the “soluble on expression in E. coli” value is listed as “soluble”.

For “MGVSGYGHDDLGRETLDKVFAEVMGAEAAAVRVQFVSGTHAIACALFGVLRPGDEMLAVVGSPYDTLEEVIGLRGQGQGSLIEFGIKYRQLELTSQGSIDWQTLSTSITDHTRLVLIQRSCGYSWRPSLSIADIEKVVNLVKQQNPHTVCFVDNCYGEFIETQEPTHVGADLMAGSLIKNPGGTIVTAGGYVAGRADLVEAAACRLTAPGIGSYGGATFLEHHHHHH”, the “soluble on expression in E. coli” value was “soluble”.

In the case of “NVQEEVTCPICLELLTEPLSLDCGHSLCRACITVSNKEAVTSMGGKSSCPVCGISYSFEHLQANQHLANIVE”, the “soluble on expression in E. coli” value is listed as “soluble”.

For the sequence “MGSDKIHHHHHHVASQTPGTEAQSQTVQPGRIAAISLHTSPLDQPGTGDAGGMNVYIVEVAKRLAERGIAVDIFTRATSFEQPPEVELAPGVTVRNIAAGPYGTLDKTALINYLCPFVHGMLRAEAEHLGGSYDLVHTHYWLSGQAGWPVAREWGVPLVHSMHTMARVKNMSLAEGDTPEPEERVRGEDALVALADRLIANTDDEAAQLINYYGASPSRVSTVFPGVDLTTFTPGSRAESLRRLGLPEDTILLLFVGRVQRLKAPDVLLRAAARLLELNPSLRDRLVVAVVGGQSGTGYREPWLLSDLADSLGIADLVRLEPPCPRAELVHYYRAATVTVVPSHSESFGLVAVESQACGTPVVAARVGGLPTAVRDGVSGVLIDGHDPHDYANVLHRMITEPRWRERMGAAGIHHASGLSWESTVDGLLAAYRDALHQCRLTVPCR”, the “soluble on expression in E. coli” value is “not soluble”.

With “SAALRYAGLDDTDSEDELPPGWEERTTKDGWVYYANHTEEKTQWEHPKTGKRKRVAGDLPYGWEQETDENGQVFFVDHINKRTTYLDPRLAFTVDDNPTKPTTRQRYDGSTTAMEILQGRDFTGKVVVVTGANSGIGFETAKSFALHGAHVILACRNMARASEAVSRILEEWQQGAATTVYCAAVPELEGLGGMYFNNCCRCMPSPEAQSEETARTLWALSERLIQERLGSQSG”, the “soluble on expression in E. coli” value is given as “soluble”.

Regarding “MGSDKIHHHHHHMSEEQKTISISELESMNIKQLYEIAKSLGIPRYTSMRKRDLIFAILKAQTESTGYFFGEGVLEIHPEGFGFLRRIEDNLLPSNDDIYISPSQIRKFNLNTGDIISGVIRKPKEGEKYFAMIKIEAINYRPVEAVNDRVNFDNLTPDYPRERFILETDPKIYSTRLIDLFAPIGKGQRGMIVAPPKAGKTTILKEIANGIAENHPDTIRIILLIDERPEEVTDIRESTNAIVIAAPFDMPPDKQVKVAELTLEMAKRLVEFNYDVVILLDSLTRLARVYNIVVPPSGKLLTGGVDPAALYKPKRFFGAARNTREGGSLTIIATALVETGSKMDEVIFEEFKGTGNMELVLSRQLANKRIFPAINLLLSGTRREELLLDEETLKKVWLLRRMLSAMTEEEGLTLILNKLSETSSNEEFLKLIDKEKARY”, the “soluble on expression in E. coli” value is “not soluble”.

As for “MSLKFIVKPHPEIFVKSESVRKRFTKILESNIRIIVKARTQGVAVFNRRDHIEVTSNSDTYYAEVLEILTTTPGIQQVLEVQQSSFTDLHNIYEQVLELNRANLENKTFVVRAKRRGKHDFTSIELERYVGGGLNQAIASAKVKLINPDVTVQVEVVDELLNQVIARHKGLGGFPLGTQEDVLSLISGGFDSGVSSYLHIKRGSKVHYCFFNLGGPAHEIGVKQTAYYLWQKYGSSAKVRFIAIDFAPVVAEILEKIDDGQMGVVLKRMFMRTAGMVAEKFGIQALVTGEALGQVSSQTLTNLRHIDNVTDTLILRPLINWDKEDIIRLAREIGTEDFAKTMPEFCGVISKSPTVKAVKEKLEEEEAKFDFALLDQVVYNARQIDIRDIGKEGHHHHHH”, the “soluble on expression in E. coli” value is reported as “soluble”.

As for “MSITSTDICQAADALKGFVGFNRKTGRYIVRFSEDSFGMDVADDSITPTSEFVWSSVRDDVMRLGREQLQILLEQNINERLNIGEPLLVYLRRQDLPEITAQRQLR”, the “soluble on expression in E. coli” value is “not soluble”.

Consider “MGSDKIHHHHHHMSIPSTLLGLSGGQFNEIDWSNCAIVMIDFQNEYVDGAMPLGDAGNKATANARLLLYKARNKNIPIFHVAHHGQDNDKIFNPLSSKVDIIDSLQPLDDEKTIIKMHPNAFYDTELQALITSAGKQQIIFAGFMSHMCVSSSVRAAFDLGFESFVCHDACATRDLPSVAGQVITASTVHDSAMAALQDRFAALVATDKLTNS”, for which the “soluble on expression in E. coli” value is on record as “not soluble”.

In the case of “METPSSAKRVTRSQAISAINDSDSDFKVPFSSSNKTEDSSIDQRKEEDRSALIDITNDSPIVGLTMQTPPSGFMVKRKSSRIKITPGSGEALLRGQVKTLLHKVEEGTELIHSIKTRPFIHLVTSPMRLLAPTPANTPQFPNFSDDDVKIKIASPIVAGNLRTSQISEEKEDKRMKKMNVETNQAEFAGKHNRFLYNSEDDEIVEAKEVLHLKGIPTPRGKHFRFATQEE”, the “soluble on expression in E. coli” value is “soluble”.

For the sequence “MSEVKYKRVILKLSGEALAGEKGFGINPPVIKTVAEELKDVYDMGVQIAIVVGGGNMWRGEAGAQMGMERAQADYIGMLATIMNALALQDNLESIGVPTRVQTSIEMRQIAEPYIRRKAMRHLEKRRIVIFAGGTGSPYFSTDTTAALRAAEINADAILMAKNGVDGVYSADPNKDASAVKFDTLTHLDIINKGLQVMDTTASSLSMDNDIPVVVFNLNEPGNIRKVVAGEHIGTTVRGKLEHHHHHH”, the “soluble on expression in E. coli” value is on record as “soluble”.

With “MGSDKIHHHHHHMNETGLLDAYGTEEKEAYIGVIASIATADRVATEDELEYLNALSEAVGINPDVAEAAAKDRSDESLSKYLNALKGSDLRFSLITDIVSFARSDGRYTADEEEKIKNSCRYLGITDEQVTVLEELVEKSNILITIPEEATDEGFFEKNGFSQMLKKANIPLISIVKGLLGLAAPFVLSKMVRSRSLSGSPAAGGLGGQLGGTVLGTFQAGRIGGLGSILANLNGIRGYADIGTILKKAIDKKEINS”, the “soluble on expression in E. coli” value is “not soluble”.

For the sequence “MGKYTEQAKLAAVKEYCAGKAGLRDVAHRHDVDFSCLRQWVAAYQIHGPAALKEKRRQRYSDEFKLAVLKRMHDERLSLRQTAALFDIRQFGIINLWQRLFDEGALNASSKPPKKAGRPRKMTTPLPPVNSSPINDESRSRDELLAEVKQLRMEVDYLKKLDALVQKKQRIAQQKKRKSLEHHHHHH”, the “soluble on expression in E. coli” value is “not soluble”.

For “MLARGKTNLKIEEIRMHKHHEIHRVKPLMPALCRIRQGKKVINWETHTLTVDNNQIILFPCGYEFYIENYPEAGLYLAEMLYLPIDLIESFQKLYTVTDQIRNKTSFFLPQNPELIYCWEQLKTSVSRGFSTKIQEHLAMGVLLSLGVNHVNHLLLSYSKQSLISRCYNLLLSEPGTKWTANKVARYLYISVSTLHRRLASEGVSFQSILDDVRLNNALSAIQTTVKPISEIARENGYKCPSRFTERFHNRFNITPREIRKASRE”, the “soluble on expression in E. coli” value was “soluble”.

As to “MGSDKIHHHHHHMWGPPWMPDQDGNMTRESGYFQCTNRNKYSVAVDITTPEGQALIYEIAKTADVVIENYKTGSLAKYGLDYASLSELNPNIVYCSITGFGQDGPRAEEPGYDFIIQGMSGLMSITGEPDDVAGGGAQKVGVAVVDIQTGLYSTIAIQAALIARSHTGRGQYIDMSLLDVQVAALANQGMNYLASGKAPQRMGNQHPSIVPYQTFKAKDKEFIIACGNDKQFKDLCIAIGYPELLENEKFVRNQDRVKYRNELIPLLSEHFLRKTAKEWVDMIHALKVPVGVINSIEDALAEPQIVYRNLVVNIPHRLNENFQTIGSPIKLSDTPVEYHHAPPELGEHTAQILSRFKTAEELAALKEKGIIDGKIA”, the “soluble on expression in E. coli” value was “not soluble”.

For the sequence “CPVNWVEHERSCYWFSRSGKAWADADNYCRLEDAHLVVVTSWEEQKFVQHHIGPVNTWMGLHDQNGPWKWVDGTDYETGFKNWRPEQPDDWYGHGLGGGEDCAHFTDDGRWNDDVCQRPYRWVCETEL”, the “soluble on expression in E. coli” value is “soluble”.

As to “MRADGFVPLQALLQLPQFHSFSIEDVQLVVNTNEKQRFTLQPGEPSTGLLIRANQGHSLQVPELELTPLETPQALPLTLVHGTFWKHWPSILLKGLSRQGRTHIHLASGLPGDPGVISGIRPNCEVAVFIDGPLALTDGIPFFCSANGVILTPGNAEGFLLPKYFKEALQLRPTRKPLSLAGDKETETQSGPKLSSRGGRRKIQQ”, the “soluble on expression in E. coli” value is listed as “soluble”.

Take “MEVLKVASNSNPNKVAGALAGVIREKGKAELQAIGAGAVNQAVKAIAIARGYLAPSGINLVCVPAFAEVQINGETRTAIKFIVFPKD”: the “soluble on expression in E. coli” value is “not soluble”.

As to “MGSDKIHHHHHHMQELCSSVVLRKHSWIQYNAMSDTVIKVEKLSKEYRLGTINHGFLFRDLQSWWARRRGKEDPNSLITTYQQHLVSDDNSRLSGGRFLALDDLTFEVRQGDALGIIGRNGAGKSTLLKIISKVTSPTSGVVKIRGRVASLLEVGTGFHPELTGRENIYLNGAISGMNKKEIKNKFDEIVAFSGVEKFIDSPVKRYSSGMYVRLAFAVAAHLGPEILIVDEVLAVGDIQFQKQCLGKMDDISKGGRTVVFVSHSLQTIASLCRECILLDQGKIKKRGLPSEVILEYLGEGGSSCADFTKLGRTVGDNFVQLVMGIVQDANNEVITEIDIREPLKISMHFTVKQDTSIRYIPNFHFTVPGGTYAFVSSPSSISELSSGNYIATCNIPGNFLNEGTYYVGLAITSYEPGMTIHFFEPNVLTFSIRDPMENCVGRYGFGYANVMPGIVRPNLDWDVRKSG”, the “soluble on expression in E. coli” value is on record as “not soluble”.

Take “MGSDKIHHHHHHMAFTPFPPRQPTASARLPLTLMTLDDWALATITGADSEKYMQGQVTADVSQMAEDQHLLAAHCDAKGKMWSNLRLFRDGDGFAWIERRSVREPQLTELKKYAVFSKVTIAPDDERVLLGVAGFQARAALANLFSELPSKEKQVVKEGATTLLWFEHPAERFLIVTDEATANMLTDKLRGEAELNNSQQWLALNIEAGFPVIDAANSGQFIPQATNLQALGGISFKKGCYTGQEMVARAKFRGANKRALWLLAGSASRLPEAGEDLELKMGENWRRTGTVLAAVKLEDGQVVVQVVMNNDMEPDSIFRVRDDANTLHIEPLPYSLEE”: the “soluble on expression in E. coli” value is “soluble”.

For the origin of these results see the DeepSol protein solubility set.
